This series deals with MS2 coat protein. Briefly: apparent KD of MS2 coat protein; designed switch direction (-1 OFF switch, 1 ON switch): -1; higher = weaker reporter binding. The gist of the method: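 For each design, the apparent KD is the median over clusters of curves fitted to normalised cluster fluorescence. Clusters held RNA switches with common flanks, transcribed on Illumina chips by stalled E. coli RNA polymerase. These were titrated with SNAP-549-labelled MS2 coat protein, doubling from 0.7 or 1.5 nM to 3 µM, without input, with 200 uM small-molecule ligand, or with an oligonucleotide input.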

The mark [1] stands for this setting: input ligand: microRNA oligo, concentration not stated.
Where [2] appears, read: Eterna round: R95, input ligand: FMN 200 uM.
Where [3] appears, read: Eterna round: R95, input ligand: microRNA oligo, concentration not stated.
The mark [4] stands for this setting: Eterna round: R95, input ligand: none.

For “GGAUGCUGAGUAAGGAUAUGGUAGGCUUGCGCAAACCAGAAGGUACAUGAGGAUCACCCAUGUAAGCAUCCAGU [eternacac ex4r4 #4] (Eterna round: R97, puzzle: Brourd's mod of Exclusion 4)”, the “apparent KD of MS2 coat protein” value is, setting by setting: (input ligand: FMN 200 uM) 16.3 nM; (input ligand: none) 14.5 nM.
“UGAUCUAGCGGAGGAUAUACAUGAGGAUCACCCAUGUAGAUGAGUGUACCGUAGUGCACUAUUGUGUAGAAGGCCGCUAGAUCU [JL ENG2 3.63] (Eterna round: R96, puzzle: Exclusion NG 2)”: the “apparent KD of MS2 coat protein” value came to 69.9 nM (input ligand: FMN 200 uM), 13.7 nM under setting [1] and 19.8 nM (input ligand: none).
In the same order, the values of “AGAGUGCUGCGAGGAUAUACAUGAGGAUCACCCAUGUUUUCCUGUGAGGCUUUGCCUCACAGGAUGUAGAAGGCGCAGUACUCA [Mat - Exclusion NG 2 - Mod of JL - D38] (Eterna round: R96, puzzle: Exclusion NG 2)” are 9.32 nM, 9.65 nM and 13.1 nM.
As for “ACUUAUUGAGGAUAUACAGAAAAUUACAUGAGGAUCACCCAUGUUCUUCAAUGUAUAUAUGUAGAAGGCAGAAGAA [JL-ex5-4.26 Malcolm mod] (Eterna round: R97, puzzle: Exclusion 5)”, the “apparent KD of MS2 coat protein” value (input ligand: FMN 200 uM) stood at 29.3 nM and the “apparent KD of MS2 coat protein” value (input ligand: none) is 12.9 nM.
Turning to “CCGCUCCGUGUAGGAUAUCGGCGUACCCUGCGCCGAGAAGGACAUGAGGAUCACCCAUGUAUGUUAUUAUCACGCGUGGCGCAC [Design 74] (Eterna round: R96, puzzle: Exclusion NG 1)”, the “apparent KD of MS2 coat protein” value by setting is: (input ligand: FMN 200 uM) 19.8 nM; under setting [1], 14.6 nM; (input ligand: none) 20.2 nM.
With “CUGGUCCGAGGAUAUAUGAUGUGAAACAUGAGGAUCACCCAUGUAAUAUUAUGGAAGAAAAUAGAAGGCGGACUAG [Mat - Exclusion 5 - JL mod - D38] (puzzle: Exclusion 5)”, the “apparent KD of MS2 coat protein” value is, setting by setting: under setting [2], 37.2 nM; under setting [3], 64.3 nM; under setting [4], 71.5 nM.
Regarding “AAUAAACUAGGAUAUACAUGAGGAUCACCCAUGUGUCGCCACGUGCUUGCUCACUCGUGUAGAAGGAGUACGGA [Atisan] (puzzle: Exclusion 3)”, under setting [3], the “apparent KD of MS2 coat protein” value came out at 33.4 nM.
“CUAGAUCUUCGGAUCUAGUACAUGAGGAUCACCCAUGUUACGAGCAGAUCUUCAUACAAGCUUUUUGCUCGUCUUAU [Sensor v3 - Turn-off variant 1 - 33] (puzzle: Sensor v3, turn-off variant 1)”: the “apparent KD of MS2 coat protein” value worked out at 33.4 nM under setting [2], 19.5 nM under setting [3] and 30.7 nM under setting [4].
On to “CGAUGCUCGAAUCCACAUGAGGAUCACCCAUGUCGAGUUAGCGAGGAUAUCGGUGACACAUAGUACGAGAAGGCGCGAACCUGA [Ex NG3 #25] (Eterna round: R96, puzzle: Exclusion NG 3)”, for which the “apparent KD of MS2 coat protein” value (input ligand: FMN 200 uM) was 50.9 nM, the “apparent KD of MS2 coat protein” value under setting [1] was found to be 28.3 nM and the “apparent KD of MS2 coat protein” value (input ligand: none) stood at 34.8 nM.
In the same order, the values of “CGUCGAAAUGUAGGAUAUCUGCACGUUUAGUGCAGAGAAGGACAUGAGGAUCACCCAUGUAGAUCACGACGAAUUAAUUUAAUU [ENG1/5-C2] (Eterna round: R96, puzzle: Exclusion NG 1)” are 374 nM, 47.3 nM and 65.8 nM.
For “UGACCUUUUGUCAGGAUAUAUAUACGUGUUGGUAGGUAGAAGGGACAUGAGGAUCACCCAUGUGGUUUGAGCUA [Eternabot (L1) Solution 74] (Eterna round: R97, puzzle: Brourd's mod of Exclusion 4)”, the “apparent KD of MS2 coat protein” value worked out at 433 nM (input ligand: FMN 200 uM) and 155 nM (input ligand: none).
On to “AAUUCACAUGAGGAUCACCCAUGUCAGGAUAUGGUUUCACGUGUUUCGGUGCUUGAGGCCAGAAGGGACAGCUA (puzzle: Exclusion 1)”, for which, under setting [3], the “apparent KD of MS2 coat protein” value turned out to be 62.4 nM.
With “UAAAGUAUAUAGGAUAUCUAGCUGGUAACAGCUAGAGAAGGAUGUACAUGAGGAUCACCCAUGUAGAUCUCAAA [Ex6/15-A3] (Eterna round: R97, puzzle: Exclusion 6)”, the “apparent KD of MS2 coat protein” value (input ligand: FMN 200 uM) was 19.3 nM and the “apparent KD of MS2 coat protein” value (input ligand: none) was found to be 12.8 nM.
With “UCUAGACAUGAGGAUCACCCAUGUGAGGAUAUGAUGCGAAUAAAGAAAGAAGAAAGCAUCAGAAGGCACAUAUG [Fiskers Ex 1 - 3] (puzzle: Exclusion 1)”, the “apparent KD of MS2 coat protein” value was 210 nM under setting [2], 116 nM under setting [3] and 191 nM under setting [4].
In the same order, the values of “AAGAAACAUGAGGAUCACCCAUGUGAGGAUAUGAUUAAGAAAAGAAAAGAAAGAAGAGUCAGAAGGCACAAAGG [salish99-ex1_r3_063] (puzzle: Exclusion 1)” are 84.9 nM, 48.8 nM and 61.8 nM.
“AAGAACUUAGGAUAUACAUGAGGAUCACCCAUGUAGCUUCACUUGGGCCUGAGCCCGUGUAGAAGGAAGAAAAU [Arge] (Eterna round: R96, puzzle: Exclusion 3)”: the “apparent KD of MS2 coat protein” value was determined as 68.3 nM (input ligand: FMN 200 uM), 47.6 nM under setting [1] and 73.5 nM (input ligand: none).
Consider “AACAGUGUAGGAUAUACAGGGCAAACGGCACCCGUCUCCGGACAUGAGGAUCACCCAUGUAGAAGGACACCUAU [EX2 C.16] (Eterna round: R97, puzzle: Exclusion 2)”, for which the “apparent KD of MS2 coat protein” value came out at 246 nM (input ligand: FMN 200 uM) and 47.4 nM (input ligand: none).
Regarding “GAUUAUGCGAGCUUUAGGGACAUGAGGAUCACCCAUGUUCGUCUUAUUGGUCUGAAUACACUAACAUACCUAAAUCU [JMF 11] (puzzle: Sensor v3, turn-off variant 1)”, the “apparent KD of MS2 coat protein” value runs as follows: under setting [2], 17.4 nM; under setting [3], 33.7 nM; under setting [4], 21.7 nM.
For the sequence “UUUGUAUAGCAAGGAUAUGUUUAAUUAUAGUUGCCUCAUACAUGAGGAUCACCCAUGUUUUACUUACAGAAGGUGCAAUGAUUU [JR_ExcNG2_Sub035] (Eterna round: R96, puzzle: Exclusion NG 2)”, the “apparent KD of MS2 coat protein” value under setting [1] worked out at 242 nM.
“CUCGCUGUGGUUAGGAUAUGUGGGUUAGCAGGCGCAUAGAAGGAACAUGAGGAUCACCCAUGUGGGUUGGUGCG [Eternabot (L2) Solution 88] (Eterna round: R97, puzzle: Brourd's mod of Exclusion 4)”: the “apparent KD of MS2 coat protein” value is, setting by setting: (input ligand: FMN 200 uM) 39.4 nM; (input ligand: none) 62.7 nM.
In the same order, the values of “CUUAUGUCAGGAUAUUAGUAGUAAAUAAAUAAAAUUAUUACUGAGAAGGGACAUGAGGAUCACCCAUGUUCCUC [Salish 062 v4] (Eterna round: R97, puzzle: Exclusion 4)” are 96 nM and 23.9 nM.
Regarding “AGUAGUAGUAUCCGGUCCUACAUGAGGAUCACCCAUGUAGCUAGACGUGCACGCGAUGCUCGUCAGACUACCAGAUG [salish99_TOv1_r3_045] (puzzle: Sensor v3, turn-off variant 1)”, the “apparent KD of MS2 coat protein” value under setting [2] was 48.6 nM, the “apparent KD of MS2 coat protein” value under setting [3] is 45.1 nM and the “apparent KD of MS2 coat protein” value under setting [4] is 59.5 nM.
Consider “AGAUAUCUAGGAUAUGCGUCGCGGAGGACUCCGAAGGGAGGACAUGAGGAUCACCCAUGUAGAAGGAGACAUUG [Eternabot (L2) Solution 38] (Eterna round: R97, puzzle: Exclusion 2)”, for which the “apparent KD of MS2 coat protein” value (input ligand: FMN 200 uM) came to 46 nM and the “apparent KD of MS2 coat protein” value (input ligand: none) was 45 nM.
As to “UGCAUGCUAGGAUAUACGGGACAUUAGGGUUCGUUGUAUGGACAUGAGGAUCACCCAUGUAGAAGGAGCGUGCU [Mod5 of JL-ex2-2.15 mat747 mod] (puzzle: Exclusion 2)”, under setting [3], the “apparent KD of MS2 coat protein” value amounted to 26 nM.
Regarding “GGUGGGCUAGGAUAUGCUUUGGGAGGGCAUUCCUUCGAUAAACUUGAGGAUCACCCAAGUAGAAGGAGCUUGCC [salish99_ex2_r4_022] (Eterna round: R97, puzzle: Exclusion 2)”, the “apparent KD of MS2 coat protein” value worked out at 33.9 nM (input ligand: FMN 200 uM) and 15.3 nM (input ligand: none).
As to “UAGUGGGUACGAAGGAGUAGUUUGAGCGUACGUUCUGUAACAUGAGGAUCACCCAUGUAGCUUUUUGCUCGACUUAU [JR_SV3TOV2_Sub037] (puzzle: Sensor v3, turn-off variant 2)”, the “apparent KD of MS2 coat protein” value by setting is: under setting [2], 28.9 nM; under setting [3], 55.7 nM; under setting [4], 29.4 nM.
With “CUAUUCCGAGGAUAUACAUGAGGAUCACCCAUGUCGGGCCUCCGCGUUUCGCGCCUCAGUAGAAGGCGGGUUUC [JL Riri mod 1] (puzzle: Exclusion 3)”, the “apparent KD of MS2 coat protein” value under setting [3] is 18.3 nM.
Still for that read-out and setting: for “UUUUAGUCAGGAUAUACAUUUUUUUAUUUAUUUAUAAUAUUACAUGAGGAUCACCCAUGUAGAAGGGACAUUUU [My Design] (puzzle: Exclusion 2)” the value was 29.6 nM; for “AGAUCACAUGAGGAUCACCCAUGUGAGGAUAUGAUACUAUGUACUUCGGUACAUAGUAUCAGAAGGCGCGUGAA [Ex1-3: 72] (puzzle: Exclusion 1)”, 28.5 nM.
In the case of “AUAAAACAUGAGGAUCACCCAUGUCAGGAUAUACGACUCCAACCUAACAGCUUGGACCGUAGAAGGGACAAGGG [Exclusion 1 (MOD2.2 Esqu)] (Eterna round: R97, puzzle: Exclusion 1)”, the “apparent KD of MS2 coat protein” value by setting is: (input ligand: FMN 200 uM) 91.6 nM; (input ligand: none) 109 nM.
“UCGUCGUCGUCAGGAUAUAGUCUUAUUGUUAUGCUUUUGUUCGUACAUGAGGAUCACCCAUGUGGCUAGAAGGGACUAAAGUUU [JR_ExcNG2_Sub017] (Eterna round: R96, puzzle: Exclusion NG 2)”: the “apparent KD of MS2 coat protein” value (input ligand: FMN 200 uM) worked out at 19.3 nM, the “apparent KD of MS2 coat protein” value under setting [1] came to 17.2 nM and the “apparent KD of MS2 coat protein” value (input ligand: none) came out at 23 nM.

Source of the values: the supplement of paper PMC9170038.
